Assay results taken from paper PMC6123635, “Molecular basis for governing the morphology of type-I collagen fibrils by Osteomodulin” (Communications Biology, 2018).

What was measured:
[1] = molecular target: Type-I collagen (VitroCol, human) (human) (UniProt P02452)
[2] = molecular target: Type-I collagen (VitroCol, human) (human) (UniProt P02452); assay: SPR; collagen immobilised on CM5 chip at around 8000 RU; OMD or muteins injected (0.125-2 µM), 30 µl/min; PBS pH 7.4, 0.005% Tween-20, 20 °C; KD by steady state analysis; binding response at 2 µM
[3] = molecular target: T1, Type-I collagen (VitroCol, human) (human, UniProt P02452 162-1218; P08123 80-1119); assay: cell-based or functional assay
[4] = molecular target: T1, Type-I collagen (VitroCol, human); assay: SPR; temperature dependence of the dissociation constant, van't Hoff analysis; values given at 32 °C; conditions: both partners purified
[5] = molecular target: T1, Type-I collagen (VitroCol, human); assay: SPR; collagen immobilised on CM5 chip at around 8000 RU; OMD or muteins injected (0.125-2 µM), 30 µl/min; PBS pH 7.4, 0.005% Tween-20, 20 °C; KD by steady state analysis; binding response at 2 µM; conditions: both partners purified

Chain of Type-I collagen (VitroCol, human) (human) (P02452 162-1218, chain 1 of 2): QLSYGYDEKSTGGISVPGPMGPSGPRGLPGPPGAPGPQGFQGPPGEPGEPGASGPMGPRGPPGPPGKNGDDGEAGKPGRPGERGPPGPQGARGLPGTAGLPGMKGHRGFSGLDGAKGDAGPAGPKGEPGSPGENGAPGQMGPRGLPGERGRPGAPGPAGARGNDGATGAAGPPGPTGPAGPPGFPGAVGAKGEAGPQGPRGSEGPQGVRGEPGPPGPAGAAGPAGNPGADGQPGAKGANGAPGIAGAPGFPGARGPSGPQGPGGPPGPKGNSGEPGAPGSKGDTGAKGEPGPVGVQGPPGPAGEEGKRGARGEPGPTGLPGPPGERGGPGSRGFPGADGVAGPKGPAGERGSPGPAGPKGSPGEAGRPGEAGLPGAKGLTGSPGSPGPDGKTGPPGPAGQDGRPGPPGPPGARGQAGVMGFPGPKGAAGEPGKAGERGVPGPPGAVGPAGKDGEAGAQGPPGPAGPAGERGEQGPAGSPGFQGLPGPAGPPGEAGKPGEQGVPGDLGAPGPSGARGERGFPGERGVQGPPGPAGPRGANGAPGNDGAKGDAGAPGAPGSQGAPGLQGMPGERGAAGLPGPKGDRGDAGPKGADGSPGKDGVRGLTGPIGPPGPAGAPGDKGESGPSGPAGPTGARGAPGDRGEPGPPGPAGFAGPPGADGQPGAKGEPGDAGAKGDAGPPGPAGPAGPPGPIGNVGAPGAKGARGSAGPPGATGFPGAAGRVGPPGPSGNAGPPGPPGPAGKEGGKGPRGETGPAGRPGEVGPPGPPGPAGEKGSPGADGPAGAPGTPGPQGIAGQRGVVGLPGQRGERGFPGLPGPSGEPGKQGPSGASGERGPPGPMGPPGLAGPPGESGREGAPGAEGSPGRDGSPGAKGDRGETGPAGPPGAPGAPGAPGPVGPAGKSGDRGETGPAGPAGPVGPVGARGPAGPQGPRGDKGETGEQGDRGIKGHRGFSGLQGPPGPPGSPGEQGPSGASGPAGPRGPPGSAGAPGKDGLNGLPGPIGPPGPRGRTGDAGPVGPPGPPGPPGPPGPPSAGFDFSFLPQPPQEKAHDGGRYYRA
Chain of Type-I collagen (VitroCol, human) (human) (P08123 80-1119, chain 2 of 2, further chain): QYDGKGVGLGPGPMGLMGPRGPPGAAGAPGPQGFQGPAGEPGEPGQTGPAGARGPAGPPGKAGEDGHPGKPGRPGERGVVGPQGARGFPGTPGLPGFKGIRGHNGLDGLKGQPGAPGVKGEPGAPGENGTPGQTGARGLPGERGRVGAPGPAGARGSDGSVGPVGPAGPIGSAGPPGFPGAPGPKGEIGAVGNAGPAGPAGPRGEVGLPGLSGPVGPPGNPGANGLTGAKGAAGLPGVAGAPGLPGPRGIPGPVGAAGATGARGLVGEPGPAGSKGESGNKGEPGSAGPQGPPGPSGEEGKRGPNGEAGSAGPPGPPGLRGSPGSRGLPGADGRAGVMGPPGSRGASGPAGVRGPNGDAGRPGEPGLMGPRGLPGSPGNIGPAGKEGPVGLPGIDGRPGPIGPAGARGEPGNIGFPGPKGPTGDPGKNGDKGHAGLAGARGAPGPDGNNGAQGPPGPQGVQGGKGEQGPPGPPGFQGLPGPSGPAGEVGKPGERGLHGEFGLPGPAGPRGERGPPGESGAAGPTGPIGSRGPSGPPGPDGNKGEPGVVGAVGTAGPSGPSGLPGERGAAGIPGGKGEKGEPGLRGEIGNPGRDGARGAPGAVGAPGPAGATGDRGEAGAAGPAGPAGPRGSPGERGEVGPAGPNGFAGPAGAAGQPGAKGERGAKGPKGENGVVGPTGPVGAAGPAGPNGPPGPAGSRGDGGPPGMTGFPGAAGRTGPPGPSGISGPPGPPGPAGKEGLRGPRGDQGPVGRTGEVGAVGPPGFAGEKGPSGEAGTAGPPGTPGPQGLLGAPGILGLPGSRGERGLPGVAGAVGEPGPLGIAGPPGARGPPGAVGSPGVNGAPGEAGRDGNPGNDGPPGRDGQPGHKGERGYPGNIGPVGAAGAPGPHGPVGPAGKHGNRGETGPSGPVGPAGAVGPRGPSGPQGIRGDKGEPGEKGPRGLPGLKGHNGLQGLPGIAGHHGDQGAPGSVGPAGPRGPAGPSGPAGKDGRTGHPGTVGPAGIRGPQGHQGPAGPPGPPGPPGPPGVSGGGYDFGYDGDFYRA
T1 sequence (P02452 162-1218, chain 1 of 2): as the sequence (P02452 162-1218, chain 1 of 2) above
T1 sequence (P08123 80-1119, chain 2 of 2): as the sequence (P08123 80-1119, chain 2 of 2, further chain) above

Molecule: chOMD E284A (from UniProt Q99983 117-364)
- IC50 (µM) of inhibition of collagen fibril formation (normalized kobs, 1 µM collagen, PBS pH 7.4, 30 °C) [1]: 0.32 μM
- kobs (per h) of collagen fibril formation with 0, 0.016, 0.08, 0.4, 2 and 10 μM chE284A (1.02 down to 0.00003) [1]: 1.02 per h
- Binding (RU) at 2 µM [2]: 57.4 RU
- Kd [2]: 78.3 µM

Molecule: chOMD E311R (from UniProt Q99983 117-364)
- Binding (RU) at 2 µM [2]: 22.6 RU
- Kd [2]: 5.48 µM

Molecule: chOMD E284R/E303R (from UniProt Q99983 117-364)
- IC50 (µM) of inhibition of collagen fibril formation (normalized kobs, 1 µM collagen, PBS pH 7.4, 30 °C) [1]: 2.18 μM
- kobs (per h) of collagen fibril formation with 0, 0.016, 0.08, 0.4, 2 and 10 μM chE284R/E303R (1.00 down to 0.65) [1]: 1 per h

Molecule: Chimeric OMD (chOMD): N-terminal region of the leucine-rich repeat domain of internalin B fused to a large portion of OMD (from UniProt Q99983 117-364)
- IC50 (µM) of inhibition of collagen fibril formation (normalized kobs, 1 µM collagen, PBS pH 7.4, 30 °C) [1]: 0.22 μM
- kobs (per h) of collagen fibril formation with 0, 0.016, 0.08, 0.4, 2 and 10 μM chOMD (0.89 down to 0.00) [1]: 0.89 per h
- Binding (RU) at 2 µM [2]: 118 RU
- Kd [2]: 25.4 µM

Molecule: chOMD E225R (from UniProt Q99983 117-364)
- Binding (RU) at 2 µM [2]: 106 RU
- Kd [2]: 29.1 µM

Molecule: chOMD D254R (from UniProt Q99983 117-364)
- Binding (RU) at 2 µM [2]: 74.8 RU
- Kd [2]: 22.3 µM

Molecule: chOMD N278R (from UniProt Q99983 117-364)
- Binding (RU) at 2 µM [2]: 47.4 RU
- Kd [2]: 14.3 µM

Molecule: chOMD E284R (from UniProt Q99983 117-364)
- IC50 (µM) of inhibition of collagen fibril formation (normalized kobs, 1 µM collagen, PBS pH 7.4, 30 °C) [1]: 0.61 μM
- kobs (per h) of collagen fibril formation with 0, 0.016, 0.08, 0.4, 2 and 10 μM chE284R (0.90 down to 0.00028) [1]: 0.9 per h
- Binding (RU) at 2 µM [2]: 22.3 RU
- Kd [2]: 32000 µM

Molecule: chOMD E303R (from UniProt Q99983 117-364)
- IC50 (µM) of inhibition of collagen fibril formation (normalized kobs, 1 µM collagen, PBS pH 7.4, 30 °C) [1]: 1.87 μM
- kobs (per h) of collagen fibril formation with 0, 0.016, 0.08, 0.4, 2 and 10 μM chE303R (1.35 down to 0.10) [1]: 1.35 per h
- Binding (RU) at 2 µM [2]: 3.7 RU
- Kd [2]: 72.4 µM

Molecule: chOMD E173R (from UniProt Q99983 117-364)
- Binding (RU) at 2 µM [2]: 118 RU
- Kd [2]: 51.4 µM

Molecule: chOMD E303A (from UniProt Q99983 117-364)
- IC50 (µM) of inhibition of collagen fibril formation (normalized kobs, 1 µM collagen, PBS pH 7.4, 30 °C) [1]: 0.37 μM
- kobs (per h) of collagen fibril formation with 0, 0.016, 0.08, 0.4 and 2 μM chE303A (1.32 down to 0.51; n.d. at 10 μM) [1]: 1.32 per h

Molecule: chOMD D271R (from UniProt Q99983 117-364)
- Binding (RU) at 2 µM [2]: 71 RU
- Kd [2]: 25.6 µM

B1: Osteomodulin (OMD), human, recombinant with C-terminal FLAG-tag (natural protein, UniProt Q99983 21-421, looked up)
chain: QYETYQWDEDYDQEPDDDYQTGFPFRQNVDYGVPFHQYTLGCVSECFCPTNFPSSMYCDNRKLKTIPNIPMHIQQLYLQFNEIEAVTANSFINATHLKEINLSHNKIKSQKIDYGVFAKLPNLLQLHLEHNNLEEFPFPLPKSLERLLLGYNEISKLQTNAMDGLVNLTMLDLCYNYLHDSLLKDKIFAKMEKLMQLNLCSNRLESMPPGLPSSLMYLSLENNSISSIPEKYFDKLPKLHTLRMSHNKLQDIPYNIFNLPNIVELSVGHNKLKQAFYIPRNLEHLYLQNNEIEKMNLTVMCPSIDPLHYHHLTYIRVDQNKLKEPISSYIFFCFPHIHTIYYGEQRSTNGQTIQLKTQVFRRFPDDDDESEDHDDPDNAHESPEQEGAEGHFDLHYYENQE
notes: osteomodulin (OMD), human, without residues 1-20 (signal peptide), residues 21-421; Its own signal peptide was replaced by the sp1-2 signal peptide for secretion; Carbohydrate is modelled in the crystal structure; Monomer by SEC-MALS; also called full-length OMD; WT OMD; source: Sf9 cells, baculovirus, secreted; not shown: FLAG, C-terminal, kept
- IC50 (µM) of inhibition of collagen fibril formation (normalized kobs, 1 µM collagen, PBS pH 7.4, 30 °C) [3]: 0.08 μM
- Kd [4]: 12 µM
- dH [4]: 7.9 kcal/mol
- Kd [5]: 24.6 µM

B2: OMD E284R/E303R (double mutant in the construct of full-length OMD) (natural protein, human, UniProt Q99983 21-421, looked up)
chain: QYETYQWDEDYDQEPDDDYQTGFPFRQNVDYGVPFHQYTLGCVSECFCPTNFPSSMYCDNRKLKTIPNIPMHIQQLYLQFNEIEAVTANSFINATHLKEINLSHNKIKSQKIDYGVFAKLPNLLQLHLEHNNLEEFPFPLPKSLERLLLGYNEISKLQTNAMDGLVNLTMLDLCYNYLHDSLLKDKIFAKMEKLMQLNLCSNRLESMPPGLPSSLMYLSLENNSISSIPEKYFDKLPKLHTLRMSHNKLQDIPYNIFNLPNIVRLSVGHNKLKQAFYIPRNLRHLYLQNNEIEKMNLTVMCPSIDPLHYHHLTYIRVDQNKLKEPISSYIFFCFPHIHTIYYGEQRSTNGQTIQLKTQVFRRFPDDDDESEDHDDPDNAHESPEQEGAEGHFDLHYYENQE
- IC50 (µM) of inhibition of collagen fibril formation (normalized kobs, 1 µM collagen, PBS pH 7.4, 30 °C) [3]: 0.29 μM
